Tests used:
[1] = biological target: T1, Robo3 FN1 mouse (Mus musculus (Mouse), UniProt Q9Z2I4); experiment: SPR equilibrium
T1 chain: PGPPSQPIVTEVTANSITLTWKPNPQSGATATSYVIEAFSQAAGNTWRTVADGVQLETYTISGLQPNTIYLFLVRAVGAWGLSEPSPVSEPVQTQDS

[2] = biological target: T2, Robo1 FN1 mouse (Mus musculus (Mouse), UniProt O89026); experiment: SPR equilibrium
T2 chain: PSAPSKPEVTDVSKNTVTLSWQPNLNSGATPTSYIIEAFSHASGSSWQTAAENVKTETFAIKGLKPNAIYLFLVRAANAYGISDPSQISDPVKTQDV

Kd [1]: 0.71 µM
Kd [2]: 13.8 µM
B1: NELL2 mouse (protein)
chain: DIDECAEGRHYCRENTMCVNTPGSFMCICKTGYIRIDDYSCTEHDECLTNQHNCDENALCFNTVGGHNCVCKPGYTGNGTTCK

— publication PMC7083938 (2020)
